Broadly, the Km is the concentration of substrate that gives half-maximal velocity.

Consider 4 molecules from US20060024313A1, “Agents that disrupt dimer formation in DPP-IV family of prolyl dipeptidases” (priority 2004, published 2006).

The subject of one series is DPP-IV. Nature of the series: Kinetic constant measurements with chromogenic substrate H-Gly-Pro-pNA. It counts as biochemical, human. How it is done:
To measure the kinetic parameters, the chromogenic substrate H-Gly-Pro-pNA was utilized to initiate the reaction, which was monitored at OD 405 nm as a function of time (21). […] The initial rate was measured with less than 10% substrate depletion for the first 10 to 300 seconds. The steady-state parameters, kcat and Km, were determined from initial velocity measurements at 0.5 to 5 Km of the substrate concentrations. Lineweaver-Burk plots were analyzed using non-linear regression of the Michaelis-Menten equation. Correlation coefficients better than 0.99 were obtained throughout.

A short description of series [1]: Analytical ultracentrifugation (AUC): sedimentation velocity and equilibrium. Type of series: physicochemical. The following applies: PBS buffer where stated. The procedure:
Buffer was changed using an Amicon device and DPP-IV proteins were allowed to equilibrate for at least four hours or longer as indicated in the text at 25° C. after buffer changes. The sedimentation coefficients (S) of the enzyme were estimated by a Beckman-Coulter XL-A analytical ultracentrifuge with an An60Ti rotor as described (25). Sedimentation velocity analysis was performed at 40,000 rpm at 25° C. with standard double sector aluminum centerpieces. The UV absorption of the cells was scanned every 5 min for 4 hours. Sedimentation equilibrium was performed at 20° C. with six-channel open centerpieces and then centrifuged at 12,000 rpm for 12 hours. The data from both sedimentation velocity and sedimentation experiments were analyzed with the SedFit version 8.7 program to obtain molecular weights and sedimentation coefficients (25). Sednterp version 1.07 program is used to obtain solvent density, viscosity, Stokes' radius (Rs) and anhydrous frictional ratio (f/fo).

[2] abbreviates: Table III, monomer form of the mutant.
The mark [3] stands for this setting: values in text, monomeric mutants.

“Also recorded” adds a separate entry of the source.

B1: 713A: DPP-IV C-terminal loop mutant, F713 substituted with Alanine (protein)
chain: SRKTYTLTDYLKNTYRLKLYSLRWISDHEYLYKQENNILVFNAEYGNSSVFLENSTFDEFGHSINDYSISPDGQFILLEYNYVKQWRHSYTASYDIYDLNKRQLITEERIPNNTQWVTWSPVGHKLAYVWNNDIYVKIEPNLPSYRITWTGKEDIIYNGITDWVYEEEVFSAYSALWWSPNGTFLAYAQFNDTEVPLIEYSFYSDESLQYPKTVRVPYPKAGAVNPTVKFFVVNTDSLSSVTNATSIQITAPASMLIGDHYLCDVTWATQERISLQWLRRIQNYSVMDICDYDESSGRWNCLVARQHIEMSTTGWVGRFRPSEPHFTLDGNSFYKIISNEEGYRHICYFQIDKKDCTFITKGTWEVIGIEALTSDYLYYISNEYKGMPGGRNLYKIQLSDYTKVTCLSCELNPERCQYYSVSFSKEAKYYQLRCSGPGLPLYTLHSSVNDKGLRVLEDNSALDKMLQNVQMPSKKLDFIILNETKFWYQMILPPHFDKSKKYPLLLDVYAGPCSQKADTVFRLNWATYLASTENIIVASFDGRGSGYQGDKIMHAINRRLGTFEVEDQIEAARQFSKMGFVDNKRIAIWGWSYGGYVTSMVLGSGSGVFKCGIAVAPVSRWEYYDSVYTERYMGLPTPEDNLDHYRNSTVMSRAENFKQVEYLLIHGTADDNVHAQQSAQISKALVDVGVDFQAMWYTDEDHGIASSTAHQHIYTHMSHFIKQCFSLP
On to B1, for which the Km came to 50.1 µM with DPP-IV (setting [2]) and 51 µM in the series with DPP-IV (setting [3]). Besides, the kcat in the series on DPP-IV (setting [2]) was found to be 1.8 s − 1; with DPP-IV (setting [3]), 1 S^−1. For the same molecule, in series [1] (listed as F713A), the “quaternary structure (monomer/dimer) by AUC” value is recorded as “monomers; also recorded: monomeric DPP-IV”.

B2: 734A: DPP-IV C-terminal loop mutant, W734 substituted with Alanine (protein)
chain: SRKTYTLTDYLKNTYRLKLYSLRWISDHEYLYKQENNILVFNAEYGNSSVFLENSTFDEFGHSINDYSISPDGQFILLEYNYVKQWRHSYTASYDIYDLNKRQLITEERIPNNTQWVTWSPVGHKLAYVWNNDIYVKIEPNLPSYRITWTGKEDIIYNGITDWVYEEEVFSAYSALWWSPNGTFLAYAQFNDTEVPLIEYSFYSDESLQYPKTVRVPYPKAGAVNPTVKFFVVNTDSLSSVTNATSIQITAPASMLIGDHYLCDVTWATQERISLQWLRRIQNYSVMDICDYDESSGRWNCLVARQHIEMSTTGWVGRFRPSEPHFTLDGNSFYKIISNEEGYRHICYFQIDKKDCTFITKGTWEVIGIEALTSDYLYYISNEYKGMPGGRNLYKIQLSDYTKVTCLSCELNPERCQYYSVSFSKEAKYYQLRCSGPGLPLYTLHSSVNDKGLRVLEDNSALDKMLQNVQMPSKKLDFIILNETKFWYQMILPPHFDKSKKYPLLLDVYAGPCSQKADTVFRLNWATYLASTENIIVASFDGRGSGYQGDKIMHAINRRLGTFEVEDQIEAARQFSKMGFVDNKRIAIWGWSYGGYVTSMVLGSGSGVFKCGIAVAPVSRWEYYDSVYTERYMGLPTPEDNLDHYRNSTVMSRAENFKQVEYLLIHGTADDNVHFQQSAQISKALVDVGVDFQAMAYTDEDHGIASSTAHQHIYTHMSHFIKQCFSLP
For B2, in the series with DPP-IV (setting [2]), the Michaelis constant (Km) came to 90.5 µM and the kcat is listed as 0.3 s − 1. Besides, the “quaternary structure (monomer/dimer) by AUC” value in series [1] was “monomers”.

B3: 735A: DPP-IV C-terminal loop mutant, Y735 substituted with Alanine (protein)
chain: SRKTYTLTDYLKNTYRLKLYSLRWISDHEYLYKQENNILVFNAEYGNSSVFLENSTFDEFGHSINDYSISPDGQFILLEYNYVKQWRHSYTASYDIYDLNKRQLITEERIPNNTQWVTWSPVGHKLAYVWNNDIYVKIEPNLPSYRITWTGKEDIIYNGITDWVYEEEVFSAYSALWWSPNGTFLAYAQFNDTEVPLIEYSFYSDESLQYPKTVRVPYPKAGAVNPTVKFFVVNTDSLSSVTNATSIQITAPASMLIGDHYLCDVTWATQERISLQWLRRIQNYSVMDICDYDESSGRWNCLVARQHIEMSTTGWVGRFRPSEPHFTLDGNSFYKIISNEEGYRHICYFQIDKKDCTFITKGTWEVIGIEALTSDYLYYISNEYKGMPGGRNLYKIQLSDYTKVTCLSCELNPERCQYYSVSFSKEAKYYQLRCSGPGLPLYTLHSSVNDKGLRVLEDNSALDKMLQNVQMPSKKLDFIILNETKFWYQMILPPHFDKSKKYPLLLDVYAGPCSQKADTVFRLNWATYLASTENIIVASFDGRGSGYQGDKIMHAINRRLGTFEVEDQIEAARQFSKMGFVDNKRIAIWGWSYGGYVTSMVLGSGSGVFKCGIAVAPVSRWEYYDSVYTERYMGLPTPEDNLDHYRNSTVMSRAENFKQVEYLLIHGTADDNVHFQQSAQISKALVDVGVDFQAMWATDEDHGIASSTAHQHIYTHMSHFIKQCFSLP
As for B3, in the series on DPP-IV (setting [2]), the Km came out at 88.6 µM and the kcat was determined as 0.05 s − 1. In addition, the “quaternary structure (monomer/dimer) by AUC” value in series [1] is “monomers”.

B4: DPP 8: member of the DPP-IV family of prolyl dipeptidases (protein)
chain: MAAAMETEQLGVEIFETADCEENIESQDRPKLEPFYVERYSWSQLKKLLADTRKYHGYMMAKAPHDFMFVKRNDPDGPHSDRIYYLAMSGENRENTLFYSEIPKTINRAAVLMLSWKPLLDLFQATLDYGMYSREEELLRERKRIGTVGIASYDYHQGSGTFLFQAGSGIYHVKDGGPQGFTQQPLRPNLVETSCPNIRMDPKLCPADPDWIAFIHSNDIWISNIVTREERRLTYVHNELANMEEDARSAGVATFVLQEEFDRYSGYWWCPKAETTPSGGKILRILYEENDESEVEIIHVTSPMLETRRADSFRYPKTGTANPKVTFKMSEIMIDAEGRIIDVIDKELIQPFEILFEGVEYIARAGWTPEGKYAWSILLDRSQTRLQIVLISPELFIPVEDDVMERQRLIESVPDSVTPLIIYEETTDIWINIHDIFHVFPQSHEEEIEFIFASECKTGFRHLYKITSILKESKYKRSSGGLPAPSDFKCPIKEEIAITSGEWEVLGRHGSNIQVDEVRRLVYFEGTKDSPLEHHLYVVSYVNPGEVTRLTDRGYSHSCCISQHCDFFISKYSNQKNPHCVSLYKLSSPEDDPTCKTKEFWATILDSAGPLPDYTPPEIFSFESTTGFTLYGMLYKPHDLQPGKKYPTVLFIYGGPQVQLVNNRFKGVKYFRLNTLASLGYVVVVIDNRGSCHRGLKFEGAFKYKMGQIEIDDQVEGLQYLASRYDFIDLDRVGIHGWSYGGYLSLMALMQRSDIFRVAIAGAPVTLWIFYDTGYTERYMGHPDQNEQGYYLGSVAMQAEKFPSEPNRLLLLHGFLDENVHFAHTSILLSFLVRAGKPYDLQIYPQERHSIRVPESGEHYELHLLHYLQENLGSRIAALKVI
Regarding B4, in series [1], the “quaternary structure (monomer/dimer) by AUC” value was “is a dimer; also recorded: exists as a dimer”.
